According to US7067277B1, “Chimeric G proteins and uses thereof” (H. Lundbeck A/S, priority 1999, dated 2006):

T1: h Y5 (Homo sapiens, UniProt Q15761)
T1 construct: expressed in transfected cells; host or cells: COS-7
T1 sequence (Q15761 1-445): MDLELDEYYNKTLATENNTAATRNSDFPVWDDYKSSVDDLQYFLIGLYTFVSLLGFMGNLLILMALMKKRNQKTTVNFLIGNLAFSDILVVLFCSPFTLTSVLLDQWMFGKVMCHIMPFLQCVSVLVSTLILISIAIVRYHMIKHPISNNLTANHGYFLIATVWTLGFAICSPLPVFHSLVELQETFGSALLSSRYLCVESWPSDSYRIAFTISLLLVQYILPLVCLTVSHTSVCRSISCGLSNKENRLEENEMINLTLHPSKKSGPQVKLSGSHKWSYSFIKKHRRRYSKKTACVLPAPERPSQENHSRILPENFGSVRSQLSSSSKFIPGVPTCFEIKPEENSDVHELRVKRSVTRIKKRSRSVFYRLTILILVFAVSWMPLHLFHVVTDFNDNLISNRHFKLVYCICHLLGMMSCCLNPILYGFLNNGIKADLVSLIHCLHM

T2: h GALR2 (Homo sapiens, UniProt O43603)
T2 construct: expressed in transfected cells; host or cells: COS-7
T2 sequence (O43603 1-387): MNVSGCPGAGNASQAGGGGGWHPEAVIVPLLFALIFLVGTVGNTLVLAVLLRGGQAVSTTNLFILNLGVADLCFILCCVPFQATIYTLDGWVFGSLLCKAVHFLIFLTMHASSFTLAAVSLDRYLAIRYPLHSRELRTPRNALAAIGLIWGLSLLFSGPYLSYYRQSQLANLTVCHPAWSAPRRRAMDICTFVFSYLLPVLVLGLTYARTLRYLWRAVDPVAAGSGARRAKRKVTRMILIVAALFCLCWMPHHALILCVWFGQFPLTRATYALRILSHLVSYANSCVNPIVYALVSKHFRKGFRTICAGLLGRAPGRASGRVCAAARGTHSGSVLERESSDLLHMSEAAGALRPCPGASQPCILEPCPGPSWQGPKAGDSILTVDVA

T3: r GALR3 (Rattus norvegicus, UniProt O88626)
T3 sequence (O88626 1-370): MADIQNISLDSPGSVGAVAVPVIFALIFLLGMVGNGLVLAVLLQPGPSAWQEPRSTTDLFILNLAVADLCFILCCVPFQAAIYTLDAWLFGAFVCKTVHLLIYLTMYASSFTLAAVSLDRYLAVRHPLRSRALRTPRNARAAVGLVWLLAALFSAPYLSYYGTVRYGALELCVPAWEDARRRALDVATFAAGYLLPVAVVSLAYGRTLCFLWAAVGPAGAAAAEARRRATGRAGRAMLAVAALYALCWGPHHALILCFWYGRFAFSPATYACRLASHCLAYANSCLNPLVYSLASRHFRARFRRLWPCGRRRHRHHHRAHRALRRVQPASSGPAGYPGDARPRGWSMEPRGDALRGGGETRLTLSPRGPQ


What was measured:
Experiment in all cases: Calcium mobilization (FLIPR, Fluo-3) in transfected COS-7 cells
Format in all cases: cell-based
h D3 = h D3 (Homo sapiens, UniProt P35462); conditions: h D3 + chimera in COS-7; agonist DA, max 100 μM
h D3, sequence (P35462 whole entry): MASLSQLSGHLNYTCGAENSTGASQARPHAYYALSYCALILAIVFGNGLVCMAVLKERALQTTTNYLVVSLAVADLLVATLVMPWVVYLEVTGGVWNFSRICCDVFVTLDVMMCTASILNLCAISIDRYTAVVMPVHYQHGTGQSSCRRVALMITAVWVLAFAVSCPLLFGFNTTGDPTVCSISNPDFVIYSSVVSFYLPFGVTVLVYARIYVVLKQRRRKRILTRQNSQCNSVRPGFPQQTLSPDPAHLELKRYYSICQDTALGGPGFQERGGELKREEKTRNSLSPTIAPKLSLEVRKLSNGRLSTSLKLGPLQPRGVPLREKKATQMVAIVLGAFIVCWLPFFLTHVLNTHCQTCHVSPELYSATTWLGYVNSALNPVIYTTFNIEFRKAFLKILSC
Summary of the method: (§1)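 Assay buffer was HBSS with 20 mM HEPES (pH 7.4), 0.1% BSA and 2.5 mM probenecid, and cells were loaded with 4 μM Fluo-3. Transfected COS-7 cells carried receptor and chimeric G protein cDNA at 1:1 or 8:1:1 ratios. Peak fluorescence change gave Hill-fitted curves.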

r NTR1 = target: T4, r NTR1 (Rattus norvegicus, UniProt P20789); conditions: r NTR1 + chimera in COS-7; agonist NT, max 1 μM
T4 construct: expressed in transfected cells; host or cells: COS-7
T4 sequence (P20789 whole entry): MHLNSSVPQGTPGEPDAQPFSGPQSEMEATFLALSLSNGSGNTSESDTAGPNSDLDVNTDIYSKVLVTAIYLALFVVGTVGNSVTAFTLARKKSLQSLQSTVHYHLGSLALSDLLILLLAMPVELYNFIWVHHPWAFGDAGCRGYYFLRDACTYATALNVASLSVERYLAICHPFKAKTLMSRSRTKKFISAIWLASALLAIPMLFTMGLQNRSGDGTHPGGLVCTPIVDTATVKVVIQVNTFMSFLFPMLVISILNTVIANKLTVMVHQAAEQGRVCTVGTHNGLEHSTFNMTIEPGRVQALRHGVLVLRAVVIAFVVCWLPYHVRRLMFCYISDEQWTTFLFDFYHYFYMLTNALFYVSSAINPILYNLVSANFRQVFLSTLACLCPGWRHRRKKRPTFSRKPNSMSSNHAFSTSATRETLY
Summary of the method: as §1

h Y5 = target: T1, h Y5; conditions: h Y5 + chimera in COS-7; agonist NPY, max 10 μM
Summary of the method: as §1

h GALR2 = target: T2, h GALR2; conditions: h GALR2 + chimera in COS-7; agonist GAL, max 10 μM
Summary of the method: as §1

h Y4 = target: T5, h Y4 (Homo sapiens, UniProt P50391); conditions: h Y4 + chimera in COS-7; agonist PP, max 10 μM
T5 construct: expressed in transfected cells; host or cells: COS-7
T5 sequence (P50391 whole entry): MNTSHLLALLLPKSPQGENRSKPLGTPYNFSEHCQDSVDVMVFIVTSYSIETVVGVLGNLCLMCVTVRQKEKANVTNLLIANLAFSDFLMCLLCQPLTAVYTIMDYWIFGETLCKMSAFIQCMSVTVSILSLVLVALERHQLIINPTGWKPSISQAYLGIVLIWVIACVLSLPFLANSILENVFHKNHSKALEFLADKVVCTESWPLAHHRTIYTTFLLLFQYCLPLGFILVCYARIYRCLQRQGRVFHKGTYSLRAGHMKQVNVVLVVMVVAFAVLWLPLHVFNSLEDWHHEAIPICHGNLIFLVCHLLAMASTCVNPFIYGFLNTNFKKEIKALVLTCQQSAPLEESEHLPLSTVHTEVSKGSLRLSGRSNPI
Summary of the method: as §1

h MCH = h MCH (Homo sapiens, UniProt Q99705); conditions: h MCH + chimera in COS-7; agonist MCH, max 10 μM
h MCH, sequence (Q99705 whole entry): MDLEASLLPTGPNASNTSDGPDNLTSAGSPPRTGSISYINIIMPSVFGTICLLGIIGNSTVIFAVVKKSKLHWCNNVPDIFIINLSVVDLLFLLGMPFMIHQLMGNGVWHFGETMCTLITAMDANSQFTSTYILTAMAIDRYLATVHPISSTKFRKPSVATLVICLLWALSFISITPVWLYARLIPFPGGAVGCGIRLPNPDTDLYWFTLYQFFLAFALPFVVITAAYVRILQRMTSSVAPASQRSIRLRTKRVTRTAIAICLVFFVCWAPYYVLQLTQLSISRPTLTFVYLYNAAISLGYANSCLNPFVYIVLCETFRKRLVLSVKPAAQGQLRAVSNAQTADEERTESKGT
Summary of the method: as §1

r GALR3 = target: T3, r GALR3; conditions: r GALR3 + chimera in COS-7; agonist GAL, max 10 μM
Summary of the method: as §1

Molecule	MAXIMAL SIGNAL (FLUORESCENCE UNITS) (h D3) [fluorescence units]	MAXIMAL SIGNAL (FLUORESCENCE UNITS) (r NTR1) [fluorescence units]	MAXIMAL SIGNAL (FLUORESCENCE UNITS) (h Y5) [fluorescence units]	MAXIMAL SIGNAL (FLUORESCENCE UNITS) (h GALR2) [fluorescence units]	MAXIMAL SIGNAL (FLUORESCENCE UNITS) (h Y4) [fluorescence units]	MAXIMAL SIGNAL (FLUORESCENCE UNITS) (h MCH) [fluorescence units]	MAXIMAL SIGNAL (FLUORESCENCE UNITS) (r GALR3) [fluorescence units]
cGαq/z5: chimeric Gα subunit: C-terminal final 5 amino acids of C. elegans Gαq replaced with those of hGαz (SEQ ID NO: 1) (protein, C. elegans) MACCLSEEAREQKRINQEIEKQLQRDKRNARRELKLLLLGTGESGKSTFIKQMRIIHGQGYSEEDKRAHIRLVYQNVFMAIQSMIRAMDTLDIKFGNESEELQEKAAVVREVDFESVTSFEEPYVSYIKELWEDSGIQECYDRRREYQLTDSAKYYLSDLRRLAVPDYLPTEQDILRVRVPTTGIIEYPFDLEQIIFRMVDVGGQRSERRKWIHCFENVTSIMFLVALSEYDQVLVECDNENRMEESKALFRTIITYPWFTNSSVILFLNKKDLLEEKILYSHLADYFPEYDGPPRDPIAAREFILKMFVDLNPDADKIIYSHFTCATDTENIRFVFAAVKDTILQHNLKYIGLC	0	14476	5314	5470	9422	2699	2298
cGαq/z9: C. elegans Gαq with Gαz portion of the C-terminal tail extended to 9 amino acids (SEQ ID NO: 2) (protein, C. elegans) MACCLSEEAREQKRINQEIEKQLQRDKRNARRELKLLLLGTGESGKSTFIKQMRIIHGQGYSEEDKRAHIRLVYQNVFMAIQSMIRAMDTLDIKFGNESEELQEKAAVVREVDFESVTSFEEPYVSYIKELWEDSGIQECYDRRREYQLTDSAKYYLSDLRRLAVPDYLPTEQDILRVRVPTTGIIEYPFDLEQIIFRMVDVGGQRSERRKWIHCFENVTSIMFLVALSEYDQVLVECDNENRMEESKALFRTIITYPWFTNSSVILFLNKKDLLEEKILYSHLADYFPEYDGPPRDPIAAREFILKMFVDLNPDADKIIYSHFTCATDTENIRFVFAAVKDTILQNNLKYIGLC	121	6111	6680	4899	7397	3332	2971
